Assay results published in article doi:10.1101/2022.10.11.511834 (bioRxiv, 2022).

Key:
[1] = biological target: ubiquitin (UniProt P0CG48 1-76); assay: crystal structure
[2] = biological target: M1-linked di-Ub (UniProt P0CG48); assay: ITC

| binding result [1] | Kd [2] [µM] | Binder |
| --- | --- | --- |
| binds |  | RNF216 (511-784, C688A, pSer719) (domain or fragment, phosphoserine at 719) QLIECRCCYGEFPFEELTQCADAHLFCKECLIRYAQEAVFGSGKLELSCMEGSCTCSFPTSELEKVLPQTILYKYYERKAEEEVAAAYADELVRCPSCSFPALLDSDVKRFSCPNPHCRKETCRKCQGLWKEHNGLTCEELAEKDDIKYRTSIEEKMTAARIRKCHKCGTGLIKSEGANRMSCRCGAQMCYLCRVSINGYDHFCQHPRSPGAPCQECSRCSLWTDPTEDDEKLIEEIQKEAEEEQKRKNGENTFKRIGPPLEKPVEKVQRVEAL |
| binds |  | HOIL-1 233-510 (C460A) (domain or fragment) DEEERARLAGEEEALRQYQQRKQQQQEGNYLQHVQLDQRSLVLNTEPAECPVCYSVLAPGEAVVLRECLHTFCRECLQGTIRNSQEAEVSCPFIDNTYSCSGKLLEREIKALLTPEDYQRFLDLGISIAENRSAFSYHCKTPDCKGWCFFEDDVNEFTCPVCFHVNCLLCKAIHEQMNCKEYQEDLALRAQNDVAARQTTEMLKVMLQQGEAMRCPQCQIVVQKKDGADWIRCTVCHTEICWVTKGPRWGPGGPGDTSGGCRCRVNGIPCHPSCQNCH |
|  | ~50 | HOIL-1 233-510 (helix-RBR), wild type (domain or fragment) DEEERARLAGEEEALRQYQQRKQQQQEGNYLQHVQLDQRSLVLNTEPAECPVCYSVLAPGEAVVLRECLHTFCRECLQGTIRNSQEAEVSCPFIDNTYSCSGKLLEREIKALLTPEDYQRFLDLGISIAENRSAFSYHCKTPDCKGWCFFEDDVNEFTCPVCFHVNCLLCKAIHEQMNCKEYQEDLALRAQNDVAARQTTEMLKVMLQQGEAMRCPQCQIVVQKKDGCDWIRCTVCHTEICWVTKGPRWGPGGPGDTSGGCRCRVNGIPCHPSCQNCH |
